One substance from publication PMC4517176 can be followed below.

The target of test [1] is ePTEN-GFP (expressed in HEK293) (human) (UniProt P60484). The test can be described thus: co-IP; PTEN-GFP constructs from HEK293 lysates held on anti-GFP beads (two hours), then 400 ul whole-cell lysate of HEK293 expressing HA-NEDD4-1 added for three hours; three washes; blots with anti-GFP and anti-HA; band intensity quantified (n = 3).
In test [2] the target is nPTEN-GFP (expressed in HEK293) (human) (UniProt P60484). The test is described as above.

In the case of “HA-NEDD4-1 (from UniProt P46934 1-1319) (enzyme)”, the increase of co-precipitated NEDD4-1 against GFP alone and wild-type PTEN-GFP in test [1] and in test [2] was 2.5 throughout.
